Values of other authors as cited in patent US7550436B2, “Compositions containing peptide and electrolyte excretion promoter and foods containing the same” (Kracie Pharma, Ltd., priority 2000, dated 2009).
No end group written: not given here.

Target: angiotensin converting enzyme (Homo sapiens, UniProt P12821)
Conditions: reported in JP-B-60-23085, JP-B-61-51562, JP-B-61-51564, JP-B-5-21092

angiotensin converting enzyme, sequence (P12821 30-1306, species assumed): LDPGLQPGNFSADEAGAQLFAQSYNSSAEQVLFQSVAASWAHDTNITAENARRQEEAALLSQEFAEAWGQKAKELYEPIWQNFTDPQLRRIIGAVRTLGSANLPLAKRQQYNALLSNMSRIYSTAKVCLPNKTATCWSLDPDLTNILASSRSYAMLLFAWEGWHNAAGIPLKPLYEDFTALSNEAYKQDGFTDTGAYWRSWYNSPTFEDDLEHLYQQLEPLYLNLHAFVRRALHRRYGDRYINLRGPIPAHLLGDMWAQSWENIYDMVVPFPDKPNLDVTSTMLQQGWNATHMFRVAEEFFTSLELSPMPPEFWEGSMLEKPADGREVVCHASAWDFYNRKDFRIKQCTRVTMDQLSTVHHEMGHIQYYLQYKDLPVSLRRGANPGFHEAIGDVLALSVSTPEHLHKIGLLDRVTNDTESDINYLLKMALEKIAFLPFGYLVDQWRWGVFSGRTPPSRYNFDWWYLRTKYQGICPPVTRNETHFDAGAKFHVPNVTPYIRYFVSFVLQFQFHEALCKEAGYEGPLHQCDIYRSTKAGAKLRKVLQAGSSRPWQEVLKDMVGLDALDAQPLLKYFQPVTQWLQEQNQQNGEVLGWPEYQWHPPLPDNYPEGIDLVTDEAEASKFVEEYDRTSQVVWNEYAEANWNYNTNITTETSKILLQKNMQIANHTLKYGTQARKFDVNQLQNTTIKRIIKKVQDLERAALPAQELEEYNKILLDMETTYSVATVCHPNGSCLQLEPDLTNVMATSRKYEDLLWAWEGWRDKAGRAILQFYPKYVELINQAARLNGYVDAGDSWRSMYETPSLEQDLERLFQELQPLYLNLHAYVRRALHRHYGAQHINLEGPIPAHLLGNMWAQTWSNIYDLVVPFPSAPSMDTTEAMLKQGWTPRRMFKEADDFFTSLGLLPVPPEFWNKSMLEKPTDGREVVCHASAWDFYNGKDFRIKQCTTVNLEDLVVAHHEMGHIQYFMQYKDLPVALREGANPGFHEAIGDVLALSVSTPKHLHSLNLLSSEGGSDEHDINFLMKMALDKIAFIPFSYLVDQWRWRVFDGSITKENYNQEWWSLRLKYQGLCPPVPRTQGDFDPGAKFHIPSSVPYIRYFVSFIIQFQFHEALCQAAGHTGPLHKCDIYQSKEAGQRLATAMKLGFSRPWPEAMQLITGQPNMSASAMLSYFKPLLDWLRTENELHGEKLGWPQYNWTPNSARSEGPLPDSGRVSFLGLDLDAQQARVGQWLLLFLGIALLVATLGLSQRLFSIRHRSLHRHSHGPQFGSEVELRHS

| inhibitory activity to angiotensin converting enzyme (ACE) | Substance |
| --- | --- |
| inhibitory activity | AVPYPQR [Cβ7, ID No. 2, casein-origin peptide] |
| inhibitory activity | FFVAPFPEVFGK [Example C12, ID No. 1, casein-origin peptide] |
| inhibitory activity | TTMPLW [Example C6, ID No. 3, casein-origin peptide] |
